Assay: yeast display, Sf9 membrane polyspecificity reagent, FACS + sequencing; frameworks hold sequencing errors
Outline: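 Genes from sorted yeast were amplified by colony PCR, read by MiSeq 2 × 250 sequencing and filtered on CDR length. These cells carried a synthetic nanobody library in Saccharomyces cerevisiae BJ5465 and were sorted by FACS into low and high (top ~1%) gates on anti-HA and streptavidin fluorescence. Polyreactivity is labelled according to the gate of origin.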

Q: For “QVQLVESGGGLVQAGGSLRLSCAASGSTFLYYAMGWYRQAPGKERELVAVISWSGVSTYYADSVKGRFTISRYNAKNTVYLQMNSLKPEDTAVYYCNTGNHYIRTYGYWGLGTQVTVSS”, which “polyreactivity (PSR sort gate)” value is on record?
A: The value was “low polyreactivity”.

Q: For “QVQLVESGGGLVQAGGSLRLSSAHSAIIFCLNSMGWYRQEPGKERELVAAITITDGSTYYADSVKGRFTISRDNAKNTVYLQMNSLKPEDTAVYYCNADAIVSPYRLWTVTFYYWGQGTQVTVSS”, which “polyreactivity (PSR sort gate)” value is on record?
A: The value was “low polyreactivity”.

Q: With “QVQLVESGGGLVQAGGSLRLSCAASGRILRYNAMGWYRQAPGKERELVASISGNGGSTYYADSVKGRFTISRDNAKYTVYLQMNSLKPEDTAVYYWGQGTQVTVSS” as the sequence, how does the “polyreactivity (PSR sort gate)” value read?
A: The value was “low polyreactivity”.

Q: With “QVQLVESGGGLVQAGGSLRLSCAASGSIFTRNAMGWSRQAPGKEREFVAAISSSGVSTYYADSVKGRFTISRDNAKNTVYLQMNSLKPEDTAVYYCAARWGTKSGRYDYWGQGTQVTVSS” as the sequence, how does the “polyreactivity (PSR sort gate)” value read?
A: Its value is “high polyreactivity”.

Q: Which “polyreactivity (PSR sort gate)” value does the source give for “QVQLVESGGGVVQAGGSLRLSCAASGSIYSQYAMGWYRQAPGTERELVASISRRGGRTYYADSVKGRFTISRDNAKNTVYLQMNSLKPEETAVYYCAALDTAGPYNTLDIYDHWGQGTQVTVSS” here?
A: Its value is “high polyreactivity”.

Q: For “QVQLVESGGGLVQAGGSLRLSCSASGSIFPKNAMGWYRQAPGKERELVARISGSGGSTYYADSVKGRFTISRDNAKNTVYLQMNSLKPEDTAVYYCAKDQSKIYSSWSGYYYWGQGTQVTVSS”, which “polyreactivity (PSR sort gate)” value is on record?
A: Its value is “low polyreactivity”.

Q: Which “polyreactivity (PSR sort gate)” value does the source give for “QVQLVESGGGLVQAGGSLRLTCAASGGTFYANAMGWYRQAPGTERELVAAITSGGSTNYADSVKGRFTISRDNAKNTVYLQMNSLKPEDTAVYYCNAAAQRRYWHSYFRRYDYWGQGTQVTVSS” here?
A: Its value is “low polyreactivity”.

Q: With “QVQHEDSGGGLVQAGGSLRLSCAASGRIFSFYTMGWYRQAPGKERELVAAISGSGGSTYYADSVKGRFTISRDNAKNTVYLQMNSLKPEDTAVYYCARRRQRGGVNYWGQGTQVTVSS” as the sequence, how does the “polyreactivity (PSR sort gate)” value read?
A: Its value is “high polyreactivity”.

Q: Which “polyreactivity (PSR sort gate)” value does the source give for “QVQLVESGGGLVQAGGSLRLSCAAYGITFYRNAMGWYRQAPGKEMELVAAITWNGGRTYYADSVKGRFTISRDNAKNTVYLQMNSLKPEDTAVYYCAADSGTLNLASYRYYYWGQGTQVTVSS” here?
A: Its value is “low polyreactivity”.

Q: Which “polyreactivity (PSR sort gate)” value does the source give for “QDQLVESGGGLVQAGGSLRLSCAATGSTFPSNAMGWYRQAPGKEREFVATIRFSGGSTYYADSVKGRFTISRVNAKNTVDLQMNSLKPEDTAVYYCAARFYSSAYWYDYWGQGTQVTVSS” here?
A: The value was “high polyreactivity”.

Q: With “QVQLVESGGGLVQEGGSLRLSCAASGFIFHVNAMGWYRQAPGKERELVARITTSGGNTFYADSVKGRFTISRDNAKNTVYLQMNSLKPEDTAVYYCAIRYRYSVGWPVKNSAFGYWGQGTQVTVSS” as the sequence, how does the “polyreactivity (PSR sort gate)” value read?
A: Its value is “low polyreactivity”.

Q: For “QVQLVESGGGFVQAGGSLRLSCAASGSTFRFYAMGWYRQAPGKERELVAAINGSGGSTYYADSVKGRFTISRDNAKNTVYLQMNSLKPEDTAVYYCAAESNTGPGEDYWGQGTQVTVSS”, which “polyreactivity (PSR sort gate)” value is on record?
A: The value was “low polyreactivity”.

Q: Which “polyreactivity (PSR sort gate)” value does the source give for “QDQLVESGGGLVQAGGSLRLSCAASGFTFYGYAMGWYRQAQGKERELVAAISSSGGRTYYADSVKGRFTISRDNAKNTVYLQMNSLKPEDTAVYYCAARARYIRGGGSRAYIGYYWGQGTQVTVSS” here?
A: The value was “high polyreactivity”.

Q: For “QVQLVESGGGLVQAGGSLRLSCAASGFIFYHYAMGRYRQAPGKERELVAAISWNGGRTYYADSVKGRFTISRDNAKNTVYLQMNSLKPEDTAVYYCAAYWTRVERVYWGQGTQVTVSS”, which “polyreactivity (PSR sort gate)” value is on record?
A: The value was “high polyreactivity”.

Q: With “QVQLVESGGGLVQAGGSLRLSCAASGRIFDLYAMGWYRQAPGKERELVATISGSGGSTYYADSVKGRFTISRDNAKNTVYLQMNSLKPEDTAVFYCAAVSVSSWYDYWGLGTQVTVSS” as the sequence, how does the “polyreactivity (PSR sort gate)” value read?
A: The value was “low polyreactivity”.

Q: For “QVQLVESGRGLVQAGGSLRLSCASSGFIFGPYAMGWYRQAPGKERELVAAISRRGGSTYYADSVKGRFTISRDNAKNTVYLQMNSLKPEDTAVYYCATRISQSYYNYGYWGQGTQGTVSS”, which “polyreactivity (PSR sort gate)” value is on record?
A: The value was “high polyreactivity”.

Q: Which “polyreactivity (PSR sort gate)” value does the source give for “QVQLVESGGGLVQAGGSLRLSCAASGSTFVYNVMGWYRQAPGKERELVAAITSGVRTYYADSVKGRFTISRDNAMNTVYLQMNSLKPEDTAVYYCATGLRYAKYYYWGQGTQVTVSS” here?
A: Its value is “high polyreactivity”.

Q: With “QVQLVESGGGLVQAGGSLRLSCAASGSIFRSYAMGWYRQAPGKERELVATIDRSGGSTYYADSVKGRFTISRDNAKNTVYLQMNSLKPEDTAVYYCNKTPHFPRPGFNYWGQGTQVTVSS” as the sequence, how does the “polyreactivity (PSR sort gate)” value read?
A: The value was “low polyreactivity”.

Q: Which “polyreactivity (PSR sort gate)” value does the source give for “QDQRVESGGGLVQAGGSLRLSCAASVRTVNFNVMGWYSQARGKERELVAAISKSTGSTFYADSVKGRFTMSRDNAKNTGYLQKNSLKPEDTAVYYCIAVRCYGSGRGYGYCGQGTQVTVSS” here?
A: Its value is “high polyreactivity”.

Q: Which “polyreactivity (PSR sort gate)” value does the source give for “QVQLVESGGGLVQAVGSLRLSCAPSGSTFPYYAMGWYRQAPGKERELVASIRKRGGGTYYADSVKGRFTISRDNAKNTVYLQMNSLKPEDTAVYYCAVRVYQFRYTGYDYWGQGTQVTVSS” here?
A: The value was “high polyreactivity”.

Q: Which “polyreactivity (PSR sort gate)” value does the source give for “QVQLVESGGGLVQAGGSLRLSCAASGSTLRAYAMGWSRQAPGKERELVAAINVSSGGTYYADSVKGRFTISRDNAKNTVYLQMNSLKPEDTAVYYCAARARWAGLRYTRYYYWGQGTQVTVSS” here?
A: Its value is “high polyreactivity”.

Q: With “QVQLVESGGGLVQAGGSLRLSCAASGGIFSRYAMGWYRQAPGKEREFVAAISFSGASTYYADSVKGRFTISRDNAKYTVYLQMNSLKPEDTAVYYCAAYWDAEGRRYTRLDYWGQGTQVTVSS” as the sequence, how does the “polyreactivity (PSR sort gate)” value read?
A: The value was “low polyreactivity”.

Q: Which “polyreactivity (PSR sort gate)” value does the source give for “QVQLVESGGGLVQAGGRLRLSCAASGSTFWLNAMGWSRQATGKERELFADSSRSGGSTYYADSVKGRFTISRDNAKNTVYLQMNSLKPEDTAVYYCAADSWPDQFTVYPGGDYWGQGTQVTVSS” here?
A: Its value is “low polyreactivity”.

Q: With “QVQHVESGGGLVQAGGSLRLSCAASGSTFSRYTMGWYRQAPGKERELVAGISRRGGITYYADSVKGRFTISRDNAKNTVYLQMNSLKPEDTAVYYCARTDVYWYGYPYDYWGQGTQVTVSS” as the sequence, how does the “polyreactivity (PSR sort gate)” value read?
A: The value was “high polyreactivity”.

Q: For “QVQLVESGGGLVQAGGSLRLSCAASGSTFPWYAMVWYRQAPGKERELVAAIRWRGGSTYYADSVKGRFTISRDNAKNTVYLQMNSLKPEDTAVYYCAADPTYLRTLRFGSYDYWGQGTQVTVSS”, which “polyreactivity (PSR sort gate)” value is on record?
A: The value was “high polyreactivity”.

Q: With “QVQLVESGGGLVQAGGSLRLSCAASGFISPSNAMGWYRQAPGKERELVAAIRSSDGSTYYADSVKGRFTISRDNAKNTVYLQMNSLKPEDTAVYYCAAGGSYYRDDYWGQGTQVTVSS” as the sequence, how does the “polyreactivity (PSR sort gate)” value read?
A: Its value is “low polyreactivity”.

Q: Which “polyreactivity (PSR sort gate)” value does the source give for “QVQLVESGGGLVQAGGSLRLSCASSGFTLYANAMGWYRQAPGKERELVADISESGSSTSYADSVKGRFTISRDNAKNTVYLQMKSLKPEDTAVYYCYDYWVQGTQVTVSS” here?
A: The value was “low polyreactivity”.

Q: For “QVQLVESGGGLVQAGGSLRLSCAASGRTFRYNAMGWYRQAPGKERELVAAISRGANTNYADSVKGRFTISRDNAKNTVYLQMNSLKPADTAVYYCAAVPGYRFYYWGQGTQVTVSS”, which “polyreactivity (PSR sort gate)” value is on record?
A: The value was “high polyreactivity”.

Q: Which “polyreactivity (PSR sort gate)” value does the source give for “QVHLVESGGGIVQAGGSHRLSCAATGRIFAPYAMGWYRQAPGKERELVAAISWSDVSTDYADSVKGRFTISRDNAKNTVYLQMNSLKPEDTAVSYCAAAYPGYRGWYYYWGQGTQVTVSS” here?
A: The value was “high polyreactivity”.

Q: Which “polyreactivity (PSR sort gate)” value does the source give for “QVQLVESVGGLVQAGGSLRLSCAASGFNFDYYTMGWYRQAPGKEREFVAAINRRGDITYYADSVKGRFTISRDNAKNTVYLQMNSLKPEDTAVYYCAANLTCSSRYEYGYWGQGTQVTVSS” here?
A: Its value is “low polyreactivity”.

Q: For “QVQLVESGGGLVQAGGSLRLSCAASGRILYSYAMGWYRQAPGKEREFVAAISRSGARTYYADYVKGRFTISRDNAKNTVYLQMNSLKPEDTAVYYCAADDFSTVEYDYWGQGTQVTVSS”, which “polyreactivity (PSR sort gate)” value is on record?
A: Its value is “low polyreactivity”.

Q: Which “polyreactivity (PSR sort gate)” value does the source give for “QVQLVESGGGLVQAGGSLRLSCAASGFTFVRYVMGWYRQAPGKERELVAAISRSGGSTHYADSVKGRFTISRDNAKNTVYLQMNSLKPEDTAVYYCAAASPRWPGQGDYWGQGTQVTVSS” here?
A: The value was “high polyreactivity”.
